Experimental data reported in patent US20200165325A1.

Tests used:
[1] = target: HIV-1 Env of strain 1056_10_TA11_1826 (HIV-1)
[2] = target: HIV-1 Env of strain 231966.c02 (HIV-1)
[3] = target: HIV-1 Env of strain 3817.v2.c59 (HIV-1)
[4] = target: HIV-1 Env of strain 620345.c01 (HIV-1)
[5] = target: HIV-1 Env of strain 62357_14_D3_4589 (HIV-1)
[6] = target: HIV-1 Env of strain 6535.3 (HIV-1)
[7] = target: HIV-1 Env of strain 928-28 (HIV-1)
[8] = target: HIV-1 Env of strain CAP210.2.00.E8 (HIV-1)
[9] = target: HIV-1 Env of strain CNE21 (HIV-1)
[10] = target: HIV-1 Env of strain CNE30 (HIV-1)
[11] = target: HIV-1 Env of strain CNE53 (HIV-1)
[12] = target: HIV-1 Env of strain Ce2010_F5 (HIV-1)
[13] = target: HIV-1 Env of strain Du422.1 (HIV-1)
[14] = target: HIV-1 Env of strain P0402_c2_11 (HIV-1)
[15] = target: HIV-1 Env of strain Q769.d22 (HIV-1)
[16] = target: HIV-1 Env of strain Q842.d12 (HIV-1)
[17] = target: HIV-1 Env of strain QH0692.42 (HIV-1)
[18] = target: HIV-1 Env of strain SC422661.8 (HIV-1)
[19] = target: HIV-1 Env of strain T255-34 (HIV-1)
[20] = target: HIV-1 Env of strain TRO.11 (HIV-1)
[21] = target: HIV-1 Env of strain WITO4160.33 (HIV-1)
[22] = target: HIV-1 Env of strain X1254_c3 (HIV-1)
[23] = target: HIV-1 Env of strain ZM53M.PB12 (HIV-1)

## NIH45-46 IgG (wild type) (antibody)
[1]
  In vitro neutralization IC80: 0.447 µg/mL
[2]
  In vitro neutralization IC80: 9.64 µg/mL
[3]
  In vitro neutralization IC80: > 50 µg/mL
[4]
  In vitro neutralization IC80: > 50 µg/mL
[5]
  In vitro neutralization IC80: 0.19 µg/mL
[6]
  In vitro neutralization IC80: 0.54 µg/mL
[7]
  In vitro neutralization IC80: 0.64 µg/mL
[8]
  In vitro neutralization IC80: > 50 µg/mL
[9]
  In vitro neutralization IC80: 38.1 µg/mL
[10]
  In vitro neutralization IC80: 1.07 µg/mL
[11]
  In vitro neutralization IC80: 0.039 µg/mL
[12]
  In vitro neutralization IC80: 0.357 µg/mL
[13]
  In vitro neutralization IC80: > 50 µg/mL
[14]
  In vitro neutralization IC80: 0.214 µg/mL
[15]
  In vitro neutralization IC80: 0.033 µg/mL
[16]
  In vitro neutralization IC80: 0.073 µg/mL
[17]
  In vitro neutralization IC80: 1.71 µg/mL
[18]
  In vitro neutralization IC80: 0.13 µg/mL
[19]
  In vitro neutralization IC80: 3.44 µg/mL
[20]
  In vitro neutralization IC80: 7.49 µg/mL
[21]
  In vitro neutralization IC80: 0.26 µg/mL
[22]
  In vitro neutralization IC80: 0.107 µg/mL
[23]
  In vitro neutralization IC80: 0.61 µg/mL
